These results are taken from US20100022459A1 (TEL AVIV UNIVERSITY FUTURE TECHNOLOGY DEVELOPMENT L P, published 2010).

Ends that are not written are not given here. cellulose membrane = cellulose membrane support bound via the C-terminal amino acid

B1: hIAPP4-13 (peptide)
peptide: Ac-TATCATQRLA-{cellulose membrane}
notes: 61-88; also called decamer of the hIAPP peptide array
B2: hIAPP23-32 (peptide)
peptide: Ac-FGAILSSTNV-{cellulose membrane}
notes: as for B1
B3: hIAPP5-14 (peptide)
peptide: Ac-ATCATQRLAN-{cellulose membrane}
notes: as for B1
B4: hIAPP17-26 (peptide)
peptide: Ac-VHSSNNFGAI-{cellulose membrane}
notes: as for B1
B5: hIAPP2-11 (peptide)
peptide: Ac-CNTATCATQR
modifications: cysteine pairing not given here; also: C-terminal residue bound to cellulose membrane
notes: as for B1
B6: hIAPP10-19 (peptide)
peptide: Ac-QRLANFLVHS
modifications: also: C-terminal residue bound to cellulose membrane
notes: as for B1
B7: hIAPP1-10 (peptide)
peptide: Ac-KCNTATCATQ
modifications: cysteine pairing not given here; also: C-terminal residue bound to cellulose membrane
notes: 61-88 (hIAPP1-10 ... hIAPP28-37); also called decamer of the hIAPP peptide array
B8: hIAPP27-36 (peptide)
peptide: Ac-LSSTNVGSNT-{cellulose membrane}
notes: as for B1
B9: hIAPP19-28 (peptide)
peptide: Ac-SSNNFGAILS
modifications: also: C-terminal residue bound to cellulose membrane
notes: as for B1
B10: hIAPP18-27 (peptide)
peptide: Ac-HSSNNFGAIL-{cellulose membrane}
notes: as for B1
B11: hIAPP6-15 (peptide)
peptide: Ac-TCATQRLANF-{cellulose membrane}
notes: as for B1
B12: hIAPP14-23 (peptide)
peptide: Ac-NFLVHSSNNF-{cellulose membrane}
notes: as for B1
B13: hIAPP9-18 (peptide)
peptide: Ac-TQRLANFLVH
modifications: also: C-terminal residue bound to cellulose membrane
notes: as for B1
B14: hIAPP25-34 (peptide)
peptide: Ac-AILSSTNVGS-{cellulose membrane}
notes: as for B1
B15: hIAPP11-20 (peptide)
peptide: Ac-RLANFLVHSS
modifications: also: C-terminal residue bound to cellulose membrane
notes: as for B1
B16: hIAPP7-16 (peptide)
peptide: Ac-CATQRLANFL
modifications: also: C-terminal residue bound to cellulose membrane
notes: as for B1
B17: hIAPP13-22 (peptide)
peptide: Ac-ANFLVHSSNN-{cellulose membrane}
notes: as for B1
B18: hIAPP16-25 (peptide)
peptide: Ac-LVHSSNNFGA-{cellulose membrane}
notes: as for B1
B19: hIAPP12-21 (peptide)
peptide: Ac-LANFLVHSSN
modifications: also: C-terminal residue bound to cellulose membrane
notes: as for B1
B20: hIAPP3-12 (peptide)
peptide: Ac-NTATCATQRL
modifications: also: C-terminal residue bound to cellulose membrane
notes: as for B1
B21: hIAPP8-17 (peptide)
peptide: Ac-ATQRLANFLV
modifications: also: C-terminal residue bound to cellulose membrane
notes: as for B1
B22: hIAPP15-24 (peptide)
peptide: Ac-FLVHSSNNFG-{cellulose membrane}
notes: as for B1
B23: hIAPP24-33 (peptide)
peptide: Ac-GAILSSTNVG-{cellulose membrane}
notes: as for B1
B24: hIAPP28-37 (peptide)
peptide: Ac-SSTNVGSNTY-{cellulose membrane}
notes: as for B1
B25: hIAPP22-31 (peptide)
peptide: Ac-NFGAILSSTN-{cellulose membrane}
notes: as for B1
B26: hIAPP26-35 (peptide)
peptide: Ac-ILSSTNVGSN-{cellulose membrane}
notes: as for B1
B27: hIAPP21-30 (peptide)
peptide: Ac-NNFGAILSST
modifications: also: C-terminal residue bound to cellulose membrane
notes: as for B1

This assay concerns the target MBP (UniProt P0AEX9 27-392 = MBP). The assay can be described thus: hIAPP peptide array incubated with MBP alone, immunoblot. Here is the method:
The cellulose membrane was then washed repeatedly with 0.05% Tween 20 in TBS. […] HRP-conjugated goat anti mouse antibodies (Jackson Laboratories, USA) were used as a secondary antibody. Immunoblots were developed using the Renaissance western blot Chemiluminescence Reagent (NEN, USA) according to Manufacturer's instructions and signal was quantified using densitometry. Regeneration of the cellulose membrane for reuse was carried out by sequential washing with Regeneration buffer I including 62.5 mM Tris, 2% SDS, 100 Mm 2-mercaptoethanol, pH 6.7, and Regeneration buffer II including 8 M urea, 1% SDS, 0.1% 2-mercaptoethanol. Efficiency of the washing steps was monitored by contacting the membrane with the chemiluminescence reagent, as described.
In general terms: In western blotting, separated proteins are transferred to a membrane and probed.
Regarding B1, the binding result is given as “no binding”.

As to B2, the binding result is on record as “no binding”.

In the case of B3, the binding result is reported as “no binding”.

Regarding B4, the binding result was “no binding”.

Regarding B5, the binding result is “no binding”.

Consider B6, for which the binding result was “no binding”.

Take B7: the binding result is on record as “no binding”.

As for B8, the binding result is “no binding”.

Take B9: the binding result was “no binding”.

Regarding B10, the binding result is recorded as “no binding”.

For B11, the binding result is given as “no binding”.

For B12, the binding result is recorded as “no binding”.

Regarding B13, the binding result is given as “no binding”.

As to B14, the binding result is listed as “no binding”.

With B15, the binding result is given as “no binding”.

On to B16, for which the binding result was “no binding”.

B17: the binding result is “no binding”.

B18: the binding result is “no binding”.

For the molecule B19, the binding result is on record as “no binding”.

With B20, the binding result is reported as “no binding”.

Consider B21, for which the binding result is “no binding”.

Take B22: the binding result is on record as “no binding”.

In the case of B23, the binding result is “no binding”.

For B24, the binding result is reported as “no binding”.

As for B25, the binding result is “no binding”.

Take B26: the binding result is on record as “no binding”.

In the case of B27, the binding result is given as “no binding”.
